Experimental findings from publication PMC4331662 are described below.

This experiment concerns the target D. melanogaster cellular repressor of E1A-stimulated genes (dCREG), residues 24-212, produced in E. coli from pFO4/dCREG (D. melanogaster). The experiment is described as follows: SEC; Superdex 75 HR 10/30, 50 mM sodium phosphate buffer pH 7.0, 150 mM NaCl, flow 0.5 ml/min, absorbance at 280 nm.

The term stoichiometry N denotes the number of molecules, sites or subunits per partner or assembly. Turning to “D. melanogaster cellular repressor of E1A-stimulated genes (dCREG), residues 24-212, produced in E. coli from pFO4/dCREG (natural protein)”, the stoichiometry N came to 2.
